The chains are these.
B1: His-tag-attached wild-type Hydrogenobacter thermophilus cytochrome c552, holo protein [modified: heme c attached (holo protein); heme c attached (holo protein)] [Hydrogenobacter thermophilus] / itself (parent)
chain: NEQLAKQKGCMACHDLKAKKVGPAYADVAKKYAGRKDAVDYLAGKIKKGGSGVWGSVPMPPQNVTDAEAKQLAQWILSIK

Variants of B1 are the subject of this assay. In words: Ni affinity chromatography (peak areas). As to conditions: with itself, protein obtained from E. coli cells, read off a plot.

For chain 1 Y32F Y41E, the screen value was determined as 13%. In addition, for the setting “parent: 27”, the screen value amounted to 11%. For the same variant, for the setting “parent: 68”, the screen value came out at 76%.

chain 1 I76V: the screen value was determined as 5.5%. Further, the screen value (parent: 27) is 19%. Besides, the screen value (parent: 68) came out at 75%.

As for chain 1 A5F M11V, the screen value was determined as 3%. The screen value (parent: 27) was found to be 14%. Besides, the screen value (parent: 68) was found to be 83%.

Regarding chain 1 A5F M11V Y32F Y41E I76V, the screen value was found to be 6.2%. For the setting “parent: 27”, the screen value was 1.8%. For the same variant, the screen value (parent: 68) turned out to be 92%.

The values above are taken from publication PMC4738263 (Scientific Reports, 2016).
